The source of these data is patent US20170210813A1.

Test [1] has as its target hPDGFRb.mmh (human) (UniProt P09619). Put plainly: Octet BLI cross-competition, 25 C; hPDGFRb.mmh on anti-Penta-His tips pre-saturated with mAb-1 H4H3310N (row 9). Background: In BLI a coated tip is dipped into the sample, and binding shifts an interference pattern.
For test [2] the target is unchanged. Put plainly: Octet BLI cross-competition, 25 C; hPDGFRb.mmh on anti-Penta-His tips pre-saturated with mAb-1 Control I (row 1); self-competition.
Test [3] has the same target. Put plainly: Octet BLI cross-competition, 25 C; hPDGFRb.mmh on anti-Penta-His tips pre-saturated with mAb-1 H4H3107S (row 7).
Test [4] shares this target. Description: Octet BLI cross-competition, 25 C; hPDGFRb.mmh on anti-Penta-His tips pre-saturated with mAb-1 H4H3305N (row 8).
Test [5] has the same target. Description: blocking ELISA, biot-hPDGFRb.mmh to coated PDGF-BB. (In an ELISA, binding on a coated surface is turned into a signal by an enzyme label.)
Test [6] deals with Macaca fascicularis PDGFRb.mmh (Macaca fascicularis). Description: SPR, mAb captured, 25 C. On the technique in general: In SPR one partner is held on a chip, and binding of the other changes the refractive index at the surface.
Test [7] addresses hPDGFRb.mmh (human) (UniProt P09619). Put plainly: SPR, mAb captured, 25 C.
Test [8] concerns the target human PDGFRb.hFc (human). Description: SPR, mAb captured, 25 C.
The target in test [9] is Macaca fascicularis PDGFRb.mmh (Macaca fascicularis). Put plainly: SPR, mAb captured, 37 C.
In test [10] the target is hPDGFRb.mmh (human) (UniProt P09619). Put plainly: SPR, mAb captured, 37 C.
Test [11] concerns the target human PDGFRb.hFc (human). Description: SPR, mAb captured, 37 C.
The target of test [12] is hPDGFRb.mmh (human) (UniProt P09619). Put plainly: Octet BLI cross-competition, 25 C; hPDGFRb.mmh on anti-Penta-His tips pre-saturated with mAb-1 H4H3099S (row 6).
Test [13] shares this target. Description: blocking ELISA, biot-hPDGFRb.mmh to coated PDGF-BB; average of three experiments.
The target of test [14] is full length human PDGFR-beta on HEK293 cells (human) (UniProt P09619). Put plainly: cell-based or functional assay.
full length human PDGFR-beta on HEK293 cells (human), sequence (P09619 33-1106 limits assumed): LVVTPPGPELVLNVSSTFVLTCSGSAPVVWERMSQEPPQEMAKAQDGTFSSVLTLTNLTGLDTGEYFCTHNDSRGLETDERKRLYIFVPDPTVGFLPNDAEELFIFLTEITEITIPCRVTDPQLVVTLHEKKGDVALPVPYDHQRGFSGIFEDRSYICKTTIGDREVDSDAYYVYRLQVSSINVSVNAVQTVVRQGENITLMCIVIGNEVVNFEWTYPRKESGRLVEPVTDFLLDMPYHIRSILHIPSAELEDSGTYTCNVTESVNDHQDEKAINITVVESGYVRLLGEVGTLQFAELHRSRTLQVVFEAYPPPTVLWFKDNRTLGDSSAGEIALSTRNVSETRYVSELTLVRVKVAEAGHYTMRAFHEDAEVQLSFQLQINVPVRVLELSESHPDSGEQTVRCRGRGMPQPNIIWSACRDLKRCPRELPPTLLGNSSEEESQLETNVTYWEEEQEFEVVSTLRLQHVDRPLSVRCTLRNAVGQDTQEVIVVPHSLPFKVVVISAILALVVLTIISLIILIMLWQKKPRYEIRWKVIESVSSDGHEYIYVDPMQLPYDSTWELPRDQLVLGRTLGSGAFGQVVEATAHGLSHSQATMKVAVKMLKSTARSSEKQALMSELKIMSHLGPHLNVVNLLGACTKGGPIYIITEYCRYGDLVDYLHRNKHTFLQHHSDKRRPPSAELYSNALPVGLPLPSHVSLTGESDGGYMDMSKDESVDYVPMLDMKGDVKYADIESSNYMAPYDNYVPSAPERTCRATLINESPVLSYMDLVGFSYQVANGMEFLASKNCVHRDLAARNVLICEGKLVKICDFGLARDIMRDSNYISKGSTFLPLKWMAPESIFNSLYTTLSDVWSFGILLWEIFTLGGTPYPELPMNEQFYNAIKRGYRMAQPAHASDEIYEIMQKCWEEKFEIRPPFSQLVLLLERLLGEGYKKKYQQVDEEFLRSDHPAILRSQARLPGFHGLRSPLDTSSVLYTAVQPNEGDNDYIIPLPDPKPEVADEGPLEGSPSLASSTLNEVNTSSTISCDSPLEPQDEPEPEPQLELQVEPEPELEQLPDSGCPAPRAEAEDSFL

hPDGFRb.mmh (human), sequence (P09619 other isoform, or with tags, fused parts or gaps): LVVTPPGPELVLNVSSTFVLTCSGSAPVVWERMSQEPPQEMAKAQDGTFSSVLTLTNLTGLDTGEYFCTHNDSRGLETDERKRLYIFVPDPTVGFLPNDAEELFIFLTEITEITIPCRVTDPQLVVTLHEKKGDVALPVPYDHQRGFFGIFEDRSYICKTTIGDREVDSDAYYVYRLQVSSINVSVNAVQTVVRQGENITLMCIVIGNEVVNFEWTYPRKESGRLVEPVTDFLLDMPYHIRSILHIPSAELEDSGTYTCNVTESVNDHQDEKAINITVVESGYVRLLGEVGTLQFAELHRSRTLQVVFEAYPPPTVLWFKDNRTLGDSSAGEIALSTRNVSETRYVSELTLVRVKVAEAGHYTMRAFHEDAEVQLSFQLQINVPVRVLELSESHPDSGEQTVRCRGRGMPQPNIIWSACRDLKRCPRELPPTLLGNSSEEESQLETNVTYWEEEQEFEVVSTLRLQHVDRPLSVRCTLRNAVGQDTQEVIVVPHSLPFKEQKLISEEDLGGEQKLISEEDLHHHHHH
Macaca fascicularis PDGFRb.mmh (Macaca fascicularis), sequence (chain, as listed by the source): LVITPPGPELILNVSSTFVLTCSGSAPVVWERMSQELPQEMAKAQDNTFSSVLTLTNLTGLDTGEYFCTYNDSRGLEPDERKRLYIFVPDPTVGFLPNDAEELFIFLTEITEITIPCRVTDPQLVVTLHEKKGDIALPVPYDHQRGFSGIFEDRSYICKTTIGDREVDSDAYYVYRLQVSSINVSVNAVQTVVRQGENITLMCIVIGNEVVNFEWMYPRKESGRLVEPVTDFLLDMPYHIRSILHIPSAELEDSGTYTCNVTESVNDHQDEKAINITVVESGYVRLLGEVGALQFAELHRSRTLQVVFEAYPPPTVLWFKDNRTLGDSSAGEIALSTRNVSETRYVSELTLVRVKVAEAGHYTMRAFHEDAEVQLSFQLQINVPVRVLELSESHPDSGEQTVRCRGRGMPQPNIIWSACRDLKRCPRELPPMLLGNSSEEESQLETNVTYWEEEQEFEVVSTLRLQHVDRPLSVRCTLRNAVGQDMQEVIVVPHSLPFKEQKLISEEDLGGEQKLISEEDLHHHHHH
Control I (antibody), sequence (VH): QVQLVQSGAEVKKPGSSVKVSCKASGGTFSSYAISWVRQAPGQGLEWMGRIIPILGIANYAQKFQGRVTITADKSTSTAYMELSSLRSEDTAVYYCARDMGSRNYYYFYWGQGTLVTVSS
Control I (antibody), sequence (VL): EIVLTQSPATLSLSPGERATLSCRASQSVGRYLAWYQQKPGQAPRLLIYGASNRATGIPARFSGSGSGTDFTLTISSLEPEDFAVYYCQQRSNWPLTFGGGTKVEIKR

In the case of Control I (antibody), the Response of mAb-2 Binding to hPDGFRβ.mmh Pre-Complexed with mAb-1 (nm) in [1] was 0.33 nm; in test [2], 0.05 nm; in test [3] it was 0.32 nm; in test [4] it was 0.34 nm; in [12] it was 0.34 nm. Moreover, the % Maximum Blocking in test [5] stood at 92%. The Kd in [6] was 8.06 nM; in test [7] it was 12.6 nM; in [8], 0.278 nM; in test [9], 20.1 nM; in test [10], 32.5 nM; in test [11], 0.27 nM. Further, the off-rate constant (koff) came to 0.00243 s⁻¹ in test [6]; 0.00349 s⁻¹ in test [7]; 0.00015 s⁻¹ in test [8]; 0.00982 s⁻¹ in test [9]; 0.0146 s⁻¹ in [10]; 0.000217 s⁻¹ in [11]. Also, the kon was 302000 M⁻¹ s⁻¹ in [6]; 277000 M⁻¹ s⁻¹ in test [7]; 539000 M⁻¹ s⁻¹ in [8]; 489000 M⁻¹ s⁻¹ in test [9]; 450000 M⁻¹ s⁻¹ in test [10]; 804000 M⁻¹ s⁻¹ in [11]. Besides, the t1/2 was found to be 5 min in test [6]; 3 min in test [7]; 77 min in test [8]; 1.2 min in test [9]; 0.8 min in test [10]; 53 min in test [11]. Besides, the IC50 in [13] was 0.34 nM. The same substance showed an IC50, blocking PDGF-BB (250 pM) activation, SRE-luciferase in test [14] of 1.8e-10 M. The IC50, blocking PDGF-DD (400 pM) activation, SRE-luciferase in [14] amounted to 1.8e-10 M. The substance further gave a Percent Internalization (Relative to Control I) in [14] of 100%.

With Isotype Ctrl (antibody), the Percent Internalization (Relative to Control I) in test [14] came out at 4%.

What is called Kd is the equilibrium constant for the complex coming apart. A high value points to weaker binding. The term koff denotes the rate constant with which the complex falls apart. The term kon denotes a measure of how fast the partners come together. Broadly, the IC50 is the point on the concentration scale where inhibition reaches its midpoint. Low readings indicate higher potency, high ones lower potency.
